Assay results as given in article PMC3500403 (Developmental cell, 2012).

Target: taxol stabilized microtubules (UniProt Q6B856 1-445)
Experiment: co-sedimentation

B1: C. elegans SKA-1 microtubule binding domain (residues 118-243) (domain or fragment, UniProt Q9XWS0 118-243, looked up)
chain: NDIRIVPQITDEEFKTIPKYQLGRLTLEMMNEIVSKMDDFLMKKSKILGKTNKQLTRSDREVLDNWRELEMKARKRLPTTLFFIETDIRPMLQDRLRPSFAKAIPCLRHIRRIREERCGPLTFYYP
Work on B1 yielded a Kd of 6.3 µM.
